Values of other authors in article PMC10653114.

Tests used:
Lys94 = Lys94 (UniProt position 95, FRVFDKDGNGY); conditions: 298 K; Conc. 0.10 (unit not given; K+/Cl–); apo (Ca2+-free) calmodulin, per the Supplemental Methods, which build an apo model
Lys13 = Lys13 (UniProt position 14, QIAEFKEAFSL); conditions: 298 K; Conc. 0.10 (unit not given; K+/Cl–); apo (Ca2+-free) calmodulin, per the Supplemental Methods, which build an apo model
Lys75 = Lys75 (UniProt position 76, TMMARKMKDTD); conditions: 298 K; Conc. 0.10 (unit not given; K+/Cl–); apo (Ca2+-free) calmodulin, per the Supplemental Methods, which build an apo model
Lys30 = Lys30 (UniProt position 31, GTITTKELGTV); conditions: 298 K; Conc. 0.10 (unit not given; K+/Cl–); apo (Ca2+-free) calmodulin, per the Supplemental Methods, which build an apo model
Lys21 = Lys21 (UniProt position 22, FSLFDKDGDGT); conditions: 298 K; Conc. 0.10 (unit not given; K+/Cl–); apo (Ca2+-free) calmodulin, per the Supplemental Methods, which build an apo model
Lys77 = Lys77 (UniProt position 78, MARKMKDTDSE); conditions: 298 K; Conc. 0.10 (unit not given; K+/Cl–); apo (Ca2+-free) calmodulin, per the Supplemental Methods, which build an apo model
Lys47 = Lys47 (UniProt position 287, AINALKSFHKP); test: NMR (per the title of cited ref 99); conditions: 298 K; Conc. 0.10 (unit not given; K+/Cl–)
Lys67 = Lys67 (UniProt position 307, IPGIGKRMAEK); test: NMR (per the title of cited ref 99); conditions: 298 K; Conc. 0.10 (unit not given; K+/Cl–)
Lys8 = Lys8 (UniProt position 248, QPSSQKATNHN); test: NMR (per the title of cited ref 99); conditions: 298 K; Conc. 0.10 (unit not given; K+/Cl–)
Lys72 = Lys72 (UniProt position 312, KRMAEKIIEIL); test: NMR (per the title of cited ref 99); conditions: 298 K; Conc. 0.10 (unit not given; K+/Cl–)
Lys41 = Lys41 (UniProt position 281, ALGYAKAINAL); test: NMR (per the title of cited ref 99); conditions: 298 K; Conc. 0.10 (unit not given; K+/Cl–)
Lys25 = Lys25 (UniProt position 265, LEVLAKAYSVQ); test: NMR (per the title of cited ref 99); conditions: 298 K; Conc. 0.10 (unit not given; K+/Cl–)
Lys84 = Lys84 (UniProt position 324, SGHLRKLDHIS); test: NMR (per the title of cited ref 99); conditions: 298 K; Conc. 0.10 (unit not given; K+/Cl–)
Lys51 = Lys51 (UniProt position 291, LKSFHKPVTSY); test: NMR (per the title of cited ref 99); conditions: 298 K; Conc. 0.10 (unit not given; K+/Cl–)
Lys19 = Lys19 (UniProt position 259, LHITEKLEVLA); test: NMR (per the title of cited ref 99); conditions: 298 K; Conc. 0.10 (unit not given; K+/Cl–)
Lys33 = Lys33 (UniProt position 273, SVQGDKWRALG); test: NMR (per the title of cited ref 99); conditions: 298 K; Conc. 0.10 (unit not given; K+/Cl–)

For “Calmodulin (apo) (Homo sapiens (as modelled in the article; source species of the measured sample not stated))”, the pKa (Lys94) is listed as 10.55 ± 0.10, the pKa (Lys13) is listed as 10.23 ± 0.10 and the pKa (Lys75) is listed as 9.87 ± 0.10. For the same substance, the pKa (Lys30) was 10.55 ± 0.10, the pKa (Lys21) was 10.55 ± 0.10 and the pKa (Lys77) was 10.55 ± 0.10.

For “DNA polymerase lambda, lyase (8 kDa) domain (Homo sapiens)”, the pKa (Lys47) is given as 10.65 ± 0.14, the pKa (Lys67) is given as 10.16 ± 0.14 and the pKa (Lys8) is given as 10.27 ± 0.14. For the same substance, the pKa (Lys72) was 9.58 ± 0.14, the pKa (Lys41) was 10.01 ± 0.14 and the pKa (Lys25) was 10.23 ± 0.14. For the same substance, the pKa (Lys84) was 10.27 ± 0.14, the pKa (Lys51) was 10.26 ± 0.14 and the pKa (Lys19) was 10.07 ± 0.14. For the same substance, the pKa (Lys33) was 10.07 ± 0.14.
